What all share (assay): SPR
What all share (conditions): all L-ribonucleotides (L-RNA, mirror image); SPR (Biacore 2000), chemokine immobilized on CM4/CM5, physiological running buffer, 37 C; complex formation in 20 mM HEPES pH 7.4, 100 mM NaCl, 5 mM KCl, 1 mM …

Data set [1] addresses CCL2 S63F S86F (Homo sapiens) (UniProt P13500).
Data set [2] deals with CCL2 S63Y S86Y (Homo sapiens) (UniProt P13500).
Data set [3] has as its target T1, CCL8 (MCP-2) (Homo sapiens) (UniProt P80075).
T1 sequence: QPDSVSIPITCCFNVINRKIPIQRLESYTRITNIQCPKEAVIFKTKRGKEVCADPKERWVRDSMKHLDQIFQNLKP

The target of data set [4] is CCL2 S21P S44P (Homo sapiens) (UniProt P13500).
The target of data set [5] is CCL11 (eotaxin) (Homo sapiens) (UniProt P51671).
Data set [6] concerns the target CCL13 (MCP-4) (Homo sapiens) (UniProt Q99616).
Data set [7] deals with CCL2 R24A R47A (Homo sapiens) (UniProt P13500).
In data set [8] the target is CCL2 K19A K42A (Homo sapiens) (UniProt P13500).
Data set [9] deals with CCL2 (MCP-1), wild type (Homo sapiens) (UniProt P13500).
Data set [10] has as its target CCL2 R18A R41A (Homo sapiens) (UniProt P13500).

A word on the Kd: it is the constant that tells how readily two partners part at equilibrium. Higher therefore signals a looser complex.

Sequence of CCL2 R24A R47A (Homo sapiens) (P13500 24-99 R47A): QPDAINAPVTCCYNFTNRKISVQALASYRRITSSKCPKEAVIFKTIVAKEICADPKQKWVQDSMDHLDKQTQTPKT
Sequence of CCL2 K19A K42A (Homo sapiens) (P13500 24-99 K42A): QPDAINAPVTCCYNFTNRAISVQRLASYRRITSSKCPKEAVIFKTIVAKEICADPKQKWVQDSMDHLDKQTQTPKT
Sequence of CCL2 R18A R41A (Homo sapiens) (P13500 24-99 R41A): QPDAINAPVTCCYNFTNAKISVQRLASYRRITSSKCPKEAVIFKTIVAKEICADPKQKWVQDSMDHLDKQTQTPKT
Sequence of CCL2 S63Y S86Y (Homo sapiens) (P13500 24-99 S86Y): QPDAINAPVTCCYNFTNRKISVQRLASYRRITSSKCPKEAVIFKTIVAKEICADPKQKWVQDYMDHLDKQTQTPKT
Sequence of CCL2 S21P S44P (Homo sapiens) (P13500 24-99 S44P): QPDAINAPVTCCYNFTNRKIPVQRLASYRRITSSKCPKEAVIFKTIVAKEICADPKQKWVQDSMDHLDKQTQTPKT
Sequence of CCL2 (MCP-1), wild type (Homo sapiens) (P13500 24-99): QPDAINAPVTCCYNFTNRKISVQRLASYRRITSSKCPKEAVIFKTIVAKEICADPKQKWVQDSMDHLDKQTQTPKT
Sequence of CCL2 S63F S86F (Homo sapiens) (P13500 24-99 S86F): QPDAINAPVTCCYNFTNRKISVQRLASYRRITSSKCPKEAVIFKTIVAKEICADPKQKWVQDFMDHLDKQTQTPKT
Sequence of CCL13 (MCP-4) (Homo sapiens) (Q99616 24-98): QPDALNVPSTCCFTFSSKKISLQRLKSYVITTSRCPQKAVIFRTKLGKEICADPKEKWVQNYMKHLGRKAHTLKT
Sequence of CCL11 (eotaxin) (Homo sapiens) (P51671 24-97): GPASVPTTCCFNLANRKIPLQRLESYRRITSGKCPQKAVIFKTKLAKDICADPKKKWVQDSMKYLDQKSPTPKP

Turning to “GCACGUCCCUCACCGGUGCAAGUGAAGCCGUGGCUCUGCG [NOX-E36 L-aptamer (Spiegelmer, without PEG)]”, the Kd in [1] was 54.4 nM; in data set [2], 74.4 nM; in [3] it was 3.35 nM; in data set [4] it was 7.94 nM; in data set [5] it was 3.06 nM; in data set [6], 22 nM. Moreover, the Kd in [7] is 8280 nM; in [8], 4130 nM; in [9], 1.32 nM; in data set [10], 14.1 nM.
